Columns and labels:
JRFL SOSIP.664 (HIV-1) = assay: ELISA on soluble trimer, panel JRFL SOSIP.664, OD 450
[1] = molecular target: BG505 SOSIP.664 Env ectodomain trimer (HIV-1); assay: SPR, BG505 SOSIP.664 captured by mAb 2G12, Fab in the flow phase
[2] = molecular target: BG505 SOSIP.664 Env ectodomain trimer (HIV-1); assay: ELISA on soluble trimer, panel BG505 SOSIP.664, OD 450
[3] = molecular target: BG505 SOSIP.664 Env ectodomain trimer (HIV-1); assay: ELISA, panel 'N6 70-03 Binding to BG505 SOSIP.664', HIV-1 Env mutation: WT
[4] = molecular target: HIV-1 Env (wild type, as used in the mutagenesis mapping of FIG. 6) (HIV-1); assay: cell-based or functional assay
[5] = molecular target: HIV-1 Env R304E mutant (HIV-1); assay: cell-based or functional assay
BG505 DS-SOSIP = assay: ELISA, panels headed BG505 DS-SOSIP, OD 450
[6] = molecular target: BG505 SOSIP.664 Env ectodomain trimer (HIV-1); assay: ELISA, BG505 SOSIP.664 coated on the plate, HRP anti-human IgG, OD 450

Molecule: N6 (antibody)
- EC50 (read off the curve) (JRFL SOSIP.664 (HIV-1)): 0.2 µg/mL

Molecule: N6 Fab
- Kd [1]: 0.36 nM

Molecule: VRC01 Fab
- Kd [1]: 22.1 nM

Molecule: VRC01 (antibody)
- EC50 (read off the curve) [2]: 0.4 µg/mL
- EC50 (read off the curve) (JRFL SOSIP.664 (HIV-1)): 0.2 µg/mL

B1: N6 70-03 (antibody, V domains shown)
VH: RAHLVQSGTAMKKPGASVRVSCQTSGYTFTAHILFWFRQAPGRGLEWVGWIKPQYGAVNFGGGFRDRVTLTRQLSQDPDDPDWGIAYMDIRGLKPDDTAVYYCARDRSYGDSSWALDAWGQGTTVVVSA
VL: YIHVTQSPSSLSVSIGDRVTINCQTSQGVGSDLHWYQHKPGRAPKLLIHHTSSVEDGVPSRFSGSGFHTSFNLTISDLQADDIATYYCQVLQFFGRGSRLHIK
- EC50 (read off the curve) [3]: 0.2 µg/mL
- EC50 (read off the curve) (E62K/E64K): 0.1 µg/mL
- EC50 (read off the curve) [2]: 0.2 µg/mL
- neutralization sensitivity (IC50), Env-pseudovirus infection of TZM-bl cells [4]: 0.007 µg/mL
- neutralization sensitivity (IC50), Env-pseudovirus infection of TZM-bl cells [5]: 0.053 µg/mL
- reduction in neutralization sensitivity compared to the WT virus [5]: 8 fold
- EC50 (read off the curve) (JRFL SOSIP.664 (HIV-1)): 0.2 µg/mL

B2: VRC03 (antibody, V domains shown)
VH: QVQLVQSGAVIKTPGSSVKISCRASGYNFRDYSIHWVRLIPDKGFEWIGWIKPLWGAVSYARQLQGRVSMTRQLSQDPDDPDWGVAYMEFSGLTSADTAEYFCVRRGSCDYCGDFPWQYWGQGTWVVSSA
VL: EIVLTQSPGILSLSPGETATLFCKASQGGNAMTWYQKRRGQVPRLLIYDTSRRASGVPDRFVGSGSGTDFFLTINKLDREDFAVYYCQQFEFFGLGSELEVH
- EC50 (read off the curve) (BG505 DS-SOSIP): 0.3 µg/mL
- EC50 (read off the curve) [6]: 0.8 µg/mL

B3: N6 70-03 Fab (Fab, V domains shown)
VH: RAHLVQSGTAMKKPGASVRVSCQTSGYTFTAHILFWFRQAPGRGLEWVGWIKPQYGAVNFGGGFRDRVTLTRQLSQDPDDPDWGIAYMDIRGLKPDDTAVYYCARDRSYGDSSWALDAWGQGTTVVVSA
VL: YIHVTQSPSSLSVSIGDRVTINCQTSQGVGSDLHWYQHKPGRAPKLLIHHTSSVEDGVPSRFSGSGFHTSFNLTISDLQADDIATYYCQVLQFFGRGSRLHIK
- Kd [1]: 0.016 nM

B4: VRC06 (antibody, V domains shown)
VH: EVQLVESGPVMRKPGSSMKISCATSGYNFRDFSIHWVRFNRRYGFEWIGWIKPMWGAVNYARQLQGRVSMSRLFSQDLYYPDRGTAYLEFSGLTSADTADYFCVRRGSSCPHCGDFHFEHWGQGTAVVVSA
VL: EIVLTQSPATLSLSPGERATLSCRASQGGNSLNWYQKRRGQTPRLLIYDTSRRASDIPEKFVGSGSGTDFSLTITKVGPEDFAVYYCQQFEFFGLGTTLEIN
- EC50 (read off the curve) (BG505 DS-SOSIP): 0.5 µg/mL

From patent publication US20210079070A1
